What was measured:
Assay in all cases: Kinase Profiling Assay
Type in all cases: biochemical
Settings in all cases: 100 μM
ASK1 (h) = target: T1, ASK1 (h) (Homo sapiens, UniProt Q99683)
T1 sequence (Q99683 1-1374): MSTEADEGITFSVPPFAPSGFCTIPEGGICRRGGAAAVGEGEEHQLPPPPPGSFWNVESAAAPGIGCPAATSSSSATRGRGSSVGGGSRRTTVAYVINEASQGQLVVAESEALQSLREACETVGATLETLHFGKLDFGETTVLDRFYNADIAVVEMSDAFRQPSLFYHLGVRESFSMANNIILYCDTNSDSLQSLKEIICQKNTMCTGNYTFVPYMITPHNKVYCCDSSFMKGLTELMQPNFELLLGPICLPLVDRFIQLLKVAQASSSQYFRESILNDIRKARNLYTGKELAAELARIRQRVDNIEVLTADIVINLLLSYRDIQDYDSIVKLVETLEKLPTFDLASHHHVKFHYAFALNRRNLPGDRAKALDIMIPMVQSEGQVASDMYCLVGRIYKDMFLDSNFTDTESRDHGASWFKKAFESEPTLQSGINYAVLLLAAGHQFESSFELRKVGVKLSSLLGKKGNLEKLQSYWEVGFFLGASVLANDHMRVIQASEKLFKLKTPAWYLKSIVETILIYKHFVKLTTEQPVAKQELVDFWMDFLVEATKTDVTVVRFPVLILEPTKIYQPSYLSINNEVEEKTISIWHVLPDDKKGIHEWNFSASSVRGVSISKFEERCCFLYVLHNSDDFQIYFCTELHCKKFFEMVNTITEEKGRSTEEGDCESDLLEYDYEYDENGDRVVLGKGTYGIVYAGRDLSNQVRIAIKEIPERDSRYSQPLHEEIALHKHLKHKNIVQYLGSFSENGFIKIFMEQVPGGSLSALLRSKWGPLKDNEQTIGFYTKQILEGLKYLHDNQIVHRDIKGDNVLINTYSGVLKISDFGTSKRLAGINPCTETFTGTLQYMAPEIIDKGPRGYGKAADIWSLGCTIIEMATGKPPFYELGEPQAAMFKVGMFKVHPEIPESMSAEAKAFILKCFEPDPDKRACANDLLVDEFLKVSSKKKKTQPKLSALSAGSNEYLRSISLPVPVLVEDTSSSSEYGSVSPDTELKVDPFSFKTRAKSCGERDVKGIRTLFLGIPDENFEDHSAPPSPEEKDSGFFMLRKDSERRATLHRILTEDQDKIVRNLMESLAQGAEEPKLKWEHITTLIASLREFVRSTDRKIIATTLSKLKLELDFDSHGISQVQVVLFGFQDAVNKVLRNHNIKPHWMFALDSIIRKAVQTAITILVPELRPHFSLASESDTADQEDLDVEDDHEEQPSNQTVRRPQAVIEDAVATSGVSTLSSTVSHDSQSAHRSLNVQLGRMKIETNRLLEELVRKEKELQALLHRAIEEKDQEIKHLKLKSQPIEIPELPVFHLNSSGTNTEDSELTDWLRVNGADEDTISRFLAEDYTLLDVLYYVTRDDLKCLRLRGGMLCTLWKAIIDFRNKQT
Method in brief: (§1)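 Specificity of MK2 inhibitory peptides is assessed against a panel of 266 human kinases. Kinase transfers a radiolabeled phosphate from ATP onto a positively charged substrate, which is trapped on a negatively charged filter and quantified by scintillation counting against full-activity control; duplicate determinations.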

CDK7/cyclinH/MAT1 (h) = target: T2, CDK7/cyclinH/MAT1 (h) (Homo sapiens, UniProt P50613)
T2 construct: purchased Millipore
Method in brief: as §1

Flt3(D835Y) (h) = Flt3(D835Y) (h) (Homo sapiens, UniProt P36888, D835Y)
Method in brief: as §1

IKKβ (h) = target: T3, IKKβ (h) (Homo sapiens, UniProt O14920)
T3 construct: purchased Millipore
T3 sequence (O14920 1-756): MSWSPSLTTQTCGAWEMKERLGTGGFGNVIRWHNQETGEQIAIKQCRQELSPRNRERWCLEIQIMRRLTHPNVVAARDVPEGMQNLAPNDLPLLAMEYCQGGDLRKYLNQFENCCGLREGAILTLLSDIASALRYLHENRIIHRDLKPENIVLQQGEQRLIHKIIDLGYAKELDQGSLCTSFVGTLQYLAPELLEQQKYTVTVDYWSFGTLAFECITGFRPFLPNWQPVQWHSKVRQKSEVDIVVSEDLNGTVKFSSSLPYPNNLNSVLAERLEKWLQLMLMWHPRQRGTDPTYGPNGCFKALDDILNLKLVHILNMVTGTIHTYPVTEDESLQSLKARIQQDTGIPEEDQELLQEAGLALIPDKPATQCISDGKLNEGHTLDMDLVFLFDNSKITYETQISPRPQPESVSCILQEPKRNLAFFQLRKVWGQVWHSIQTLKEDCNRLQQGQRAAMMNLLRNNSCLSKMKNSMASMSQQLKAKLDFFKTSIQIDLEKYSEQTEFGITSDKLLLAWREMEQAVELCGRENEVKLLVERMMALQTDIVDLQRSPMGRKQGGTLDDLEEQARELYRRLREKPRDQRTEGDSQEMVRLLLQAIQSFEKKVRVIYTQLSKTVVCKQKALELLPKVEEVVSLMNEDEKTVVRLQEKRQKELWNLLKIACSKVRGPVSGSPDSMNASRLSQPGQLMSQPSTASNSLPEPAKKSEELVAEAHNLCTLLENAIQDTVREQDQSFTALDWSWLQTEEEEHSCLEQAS
Method in brief: as §1

PDGFRα (h) = target: T4, PDGFRα (h) (Homo sapiens, UniProt P16234)
T4 construct: purchased Millipore
Method in brief: as §1

cKit(D816H) (h) = target: T5, cKit(D816H) (h) (Homo sapiens, UniProt P10721, D816H)
T5 construct: purchased Millipore
Method in brief: as §1

FAK (h) = FAK (h) (Homo sapiens, UniProt Q05397)
Method in brief: as §1

Chain of FAK (h) (Q05397 whole entry): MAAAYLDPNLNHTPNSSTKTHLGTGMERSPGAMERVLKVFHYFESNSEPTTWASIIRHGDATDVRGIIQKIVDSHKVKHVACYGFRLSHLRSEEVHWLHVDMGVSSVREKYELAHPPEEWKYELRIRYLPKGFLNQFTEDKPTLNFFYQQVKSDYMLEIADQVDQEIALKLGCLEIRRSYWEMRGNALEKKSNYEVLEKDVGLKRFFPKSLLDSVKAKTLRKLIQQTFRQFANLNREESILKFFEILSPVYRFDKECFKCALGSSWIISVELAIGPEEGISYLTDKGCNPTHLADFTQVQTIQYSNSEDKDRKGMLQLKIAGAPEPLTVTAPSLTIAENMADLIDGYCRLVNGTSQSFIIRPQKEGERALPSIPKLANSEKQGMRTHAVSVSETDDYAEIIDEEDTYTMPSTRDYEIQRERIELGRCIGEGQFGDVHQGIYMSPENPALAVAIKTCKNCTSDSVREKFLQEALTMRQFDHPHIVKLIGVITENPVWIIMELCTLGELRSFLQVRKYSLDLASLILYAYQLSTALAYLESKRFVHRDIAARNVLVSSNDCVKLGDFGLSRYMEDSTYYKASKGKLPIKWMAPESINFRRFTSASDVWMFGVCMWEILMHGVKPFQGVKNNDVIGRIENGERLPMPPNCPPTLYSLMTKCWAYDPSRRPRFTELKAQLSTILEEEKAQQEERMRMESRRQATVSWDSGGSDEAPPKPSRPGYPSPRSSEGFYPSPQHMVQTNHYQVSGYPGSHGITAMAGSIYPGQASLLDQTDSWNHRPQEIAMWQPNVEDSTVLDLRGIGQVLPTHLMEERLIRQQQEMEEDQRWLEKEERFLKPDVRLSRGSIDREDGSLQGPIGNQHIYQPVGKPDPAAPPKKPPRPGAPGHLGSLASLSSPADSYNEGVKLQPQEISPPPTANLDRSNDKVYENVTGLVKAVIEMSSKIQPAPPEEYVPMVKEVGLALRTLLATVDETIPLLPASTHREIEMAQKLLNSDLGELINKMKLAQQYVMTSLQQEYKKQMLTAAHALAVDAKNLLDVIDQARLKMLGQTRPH
T2 sequence (P50613 whole entry): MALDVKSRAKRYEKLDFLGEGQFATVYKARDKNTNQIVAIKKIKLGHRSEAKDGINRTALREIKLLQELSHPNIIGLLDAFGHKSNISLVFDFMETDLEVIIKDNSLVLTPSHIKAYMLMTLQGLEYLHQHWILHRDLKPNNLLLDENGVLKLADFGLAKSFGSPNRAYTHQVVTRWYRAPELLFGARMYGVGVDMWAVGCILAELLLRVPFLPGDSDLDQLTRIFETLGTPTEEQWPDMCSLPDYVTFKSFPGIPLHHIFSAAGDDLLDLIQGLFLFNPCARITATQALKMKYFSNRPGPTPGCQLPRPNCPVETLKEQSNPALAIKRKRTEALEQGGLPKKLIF
T2 sequence (P51946 whole entry partner): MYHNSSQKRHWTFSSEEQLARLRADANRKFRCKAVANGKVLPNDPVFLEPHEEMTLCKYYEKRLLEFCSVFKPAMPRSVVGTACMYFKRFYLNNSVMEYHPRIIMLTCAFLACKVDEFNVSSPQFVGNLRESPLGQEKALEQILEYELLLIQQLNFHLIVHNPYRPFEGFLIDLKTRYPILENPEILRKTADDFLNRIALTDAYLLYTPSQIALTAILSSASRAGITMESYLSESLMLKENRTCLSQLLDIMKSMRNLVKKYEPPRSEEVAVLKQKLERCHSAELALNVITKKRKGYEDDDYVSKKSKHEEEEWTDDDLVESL
T2 sequence (P51948 whole entry partner): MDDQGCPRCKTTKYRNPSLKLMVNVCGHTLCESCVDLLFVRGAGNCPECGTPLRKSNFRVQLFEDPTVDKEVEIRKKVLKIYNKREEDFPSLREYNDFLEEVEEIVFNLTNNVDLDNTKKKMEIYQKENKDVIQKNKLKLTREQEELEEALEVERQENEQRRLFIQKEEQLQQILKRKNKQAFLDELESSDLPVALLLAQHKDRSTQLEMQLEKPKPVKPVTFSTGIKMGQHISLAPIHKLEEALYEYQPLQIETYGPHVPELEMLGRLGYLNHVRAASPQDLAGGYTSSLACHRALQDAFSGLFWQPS
T4 sequence (P16234 24-1089): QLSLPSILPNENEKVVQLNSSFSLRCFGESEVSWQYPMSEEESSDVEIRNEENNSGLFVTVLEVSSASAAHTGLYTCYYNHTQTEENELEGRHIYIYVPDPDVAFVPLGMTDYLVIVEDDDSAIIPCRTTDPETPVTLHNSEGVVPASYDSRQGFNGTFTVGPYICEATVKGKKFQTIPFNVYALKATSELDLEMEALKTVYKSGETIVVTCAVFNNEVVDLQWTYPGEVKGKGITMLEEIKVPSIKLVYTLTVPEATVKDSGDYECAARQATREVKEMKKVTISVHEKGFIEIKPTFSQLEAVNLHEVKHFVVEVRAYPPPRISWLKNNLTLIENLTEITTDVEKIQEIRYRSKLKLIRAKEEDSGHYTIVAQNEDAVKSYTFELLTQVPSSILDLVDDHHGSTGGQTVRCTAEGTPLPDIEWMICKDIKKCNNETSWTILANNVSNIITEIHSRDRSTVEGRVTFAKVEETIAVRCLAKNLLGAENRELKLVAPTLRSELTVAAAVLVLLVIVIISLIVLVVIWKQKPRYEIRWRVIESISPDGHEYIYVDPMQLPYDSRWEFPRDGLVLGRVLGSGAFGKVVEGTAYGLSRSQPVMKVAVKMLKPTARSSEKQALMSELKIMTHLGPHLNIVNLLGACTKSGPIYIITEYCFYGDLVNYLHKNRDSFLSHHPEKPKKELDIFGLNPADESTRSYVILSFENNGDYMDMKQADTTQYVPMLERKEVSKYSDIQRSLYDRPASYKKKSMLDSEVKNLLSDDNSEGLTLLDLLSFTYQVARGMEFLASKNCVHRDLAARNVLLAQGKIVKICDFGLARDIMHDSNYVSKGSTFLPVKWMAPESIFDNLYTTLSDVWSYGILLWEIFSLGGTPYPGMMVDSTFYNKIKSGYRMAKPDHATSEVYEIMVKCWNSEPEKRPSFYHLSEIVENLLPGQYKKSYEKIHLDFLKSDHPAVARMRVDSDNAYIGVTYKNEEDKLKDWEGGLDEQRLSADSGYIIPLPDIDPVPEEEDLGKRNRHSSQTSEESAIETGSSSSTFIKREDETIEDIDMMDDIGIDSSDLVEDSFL

Sequence | % activity (ASK1 (h)) [%] | % activity (CDK7/cyclinH/MAT1 (h)) [%] | % activity (Flt3(D835Y) (h)) [%] | % activity (IKKβ (h)) [%] | % activity (PDGFRα (h)) [%] | % activity (cKit(D816H) (h)) [%] | % activity (FAK (h)) [%]
FAKLAARLYRKALARQLGVAA [MMI-0300] | 80 | 65 | 80 | 84 | 65 | 126 | –
HRRIKAWLKKIKALARQLGVAA (Mammalian) [MMI-0500] | −4 | 15 | 65 | 71 | 40 | 194 | 94
KAFAKLAARLYRKALARQLGVAA [MMI-0400] | 69 | 47 | 71 | 84 | 40 | 143 | 96
YARAAARQARAKALNRQLGVA (Mammalian) [MMI-0200] | 101 | 67 | – | – | 108 | – | 110
